This passage reports fraction ligated results from the supplement of paper PMC6755084.

The test system of this data set is F1*sub RNA substrate (template-directed ligation). The experiment in a line: fraction ligated after 30 min (ligated reads / total reads); higher = more ligase activity; sequences stand for … in GAGACCGCAACTGAAAAGTTGT…AGTTCTGCACGTAGAAGCAAAAGGC
To be noted: 42 °C. An outline of the steps: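 Ribozyme variants were transcribed with T7 from PCR-amplified oligo-pool templates and gel-purified. Ligated and unligated bands, separated on gel, were reverse transcribed with barcoded primers and sequenced on a MiSeq, with core bases filtered at quality ≥20. Fraction ligated per variant was computed as ligated reads divided by total reads.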
As to TTCACTTGTCGTAAAACTTTGGATGGGTTGA [3d442], the fraction ligated worked out at 0.623.
TTCACTTGTCGTAAACACTTGGATGGGTTGA [3d445] returned a fraction ligated of 0.0492.
Next, TTCACTTGTCGTAAACACTTTGATGGGTTGA [3d446]: 0.0177.
Next, TTCACTTGTCGTAAACACTTTGGAGGGTTGA [3d448]: 0.0223.
TTCACTTGTCGTAAACACTTTGGATGGGTTA [3d450] had a fraction ligated of 0.0146.
Sequence TTCACTTGTCGTAAACACTTTGGATGGGTTG [3d451] came in with a fraction ligated of 0.177.
Next, TTCACTTGTCGTAAACACTTTGGATGGGTTGA [2d35]: 0.646.
TTCACTTGTCGTAAACACTTTGGATGGTTGA [3d449]: the fraction ligated is 0.067.
TTCACTTGTCGTAAACACTTTGGTGGGTTGA [3d447] had a fraction ligated of 0.0202.
In turn, TTCACTTGTCGTAAACATTTGGATGGGTTGA [3d444] returned a fraction ligated of 0.804.
TTCACTTGTCGTAAACCTTTGGATGGGTTGA [3d443] showed a fraction ligated of 0.514.
Next, TTCACTTGTCGTAACACTTTGGATGGGTTGA [3d430]: 0.728; TTCACTTGTCGTAAGAACTTGGATGGGTTGA [3d463]: 0.226; TTCACTTGTCGTAAGAACTTTGATGGGTTGA [3d464]: 0.119.
TTCACTTGTCGTAAGAACTTTGGAGGGTTGA [3d466]: the fraction ligated came to 0.0901.
As for TTCACTTGTCGTAAGAACTTTGGATGGGTTA [3d468], the fraction ligated came to 0.0936.
Consider TTCACTTGTCGTAAGAACTTTGGATGGGTTG [3d469], for which the fraction ligated amounted to 0.533.
In the case of TTCACTTGTCGTAAGAACTTTGGATGGGTTGA [2d37], the fraction ligated was 0.748.
The sequence TTCACTTGTCGTAAGAACTTTGGATGGTTGA [3d467] yielded a fraction ligated of 0.279.
TTCACTTGTCGTAAGAACTTTGGTGGGTTGA [3d465] returned a fraction ligated of 0.019.
In turn, TTCACTTGTCGTAAGAATTTGGATGGGTTGA [3d462] returned a fraction ligated of 0.693.
As for TTCACTTGTCGTAAGACACTGGATGGGTTGA [3d484], the fraction ligated was found to be 0.705.
For TTCACTTGTCGTAAGACACTTGATGGGTTGA [3d485], the fraction ligated is 0.0622.
Take TTCACTTGTCGTAAGACACTTGGAGGGTTGA [3d487]: the fraction ligated was 0.0171.
The sequence TTCACTTGTCGTAAGACACTTGGATGGGTTA [3d489] registered a fraction ligated of 0.0495.
On to TTCACTTGTCGTAAGACACTTGGATGGGTTG [3d490], for which the fraction ligated was found to be 0.288.
Turning to TTCACTTGTCGTAAGACACTTGGATGGGTTGA [2d40], the fraction ligated stood at 0.656.
Consider TTCACTTGTCGTAAGACACTTGGATGGTTGA [3d488], for which the fraction ligated was determined as 0.161.
In the case of TTCACTTGTCGTAAGACACTTGGTGGGTTGA [3d486], the fraction ligated turned out to be 0.00989.
Sequence TTCACTTGTCGTAAGACACTTTATGGGTTGA [3d491] came in with a fraction ligated of 0.00731.
Regarding TTCACTTGTCGTAAGACACTTTGAGGGTTGA [3d493], the fraction ligated was found to be 0.0469.
TTCACTTGTCGTAAGACACTTTGATGGGTTA [3d495] registered a fraction ligated of 0.0395.
Next, TTCACTTGTCGTAAGACACTTTGATGGGTTG [3d496]: 0.298; TTCACTTGTCGTAAGACACTTTGATGGGTTGA [2d41]: 0.553.
With TTCACTTGTCGTAAGACACTTTGATGGTTGA [3d494] the figure was 0.0545; with TTCACTTGTCGTAAGACACTTTGGAGGGTTA [3d502], 0.0179; with TTCACTTGTCGTAAGACACTTTGGAGGGTTG [3d503], 0.103.
With TTCACTTGTCGTAAGACACTTTGGAGGGTTGA [2d43] the figure was 0.227; with TTCACTTGTCGTAAGACACTTTGGAGGTTGA [3d501], 0.00904.
Take TTCACTTGTCGTAAGACACTTTGGATGGGTT [3d506]: the fraction ligated came to 0.0428.
Regarding TTCACTTGTCGTAAGACACTTTGGATGGGTTA [2d45], the fraction ligated is 0.619.
The sequence TTCACTTGTCGTAAGACACTTTGGATGGGTTG [2d46] returned a fraction ligated of 0.792.
Consider TTCACTTGTCGTAAGACACTTTGGATGGGTTGA [1d2], for which the fraction ligated is 0.789.
The sequence TTCACTTGTCGTAAGACACTTTGGATGGTTA [3d504] displayed a fraction ligated of 0.636.
Next, TTCACTTGTCGTAAGACACTTTGGATGGTTG [3d505]: 0.681; TTCACTTGTCGTAAGACACTTTGGATGGTTGA [2d44]: 0.739.
In turn, TTCACTTGTCGTAAGACACTTTGGGGGTTGA [3d497] returned a fraction ligated of 0.0262.
For the sequence TTCACTTGTCGTAAGACACTTTGGTGGGTTA [3d499], the fraction ligated amounted to 0.00711.
Sequence TTCACTTGTCGTAAGACACTTTGGTGGGTTG [3d500] gave a fraction ligated of 0.0269.
The sequence TTCACTTGTCGTAAGACACTTTGGTGGGTTGA [2d42] returned a fraction ligated of 0.0345.
TTCACTTGTCGTAAGACACTTTGGTGGTTGA [3d498] returned a fraction ligated of 0.014.
For TTCACTTGTCGTAAGACACTTTGTGGGTTGA [3d492], the fraction ligated stood at 0.0104.
Sequence TTCACTTGTCGTAAGACATTGGATGGGTTGA [3d477] registered a fraction ligated of 0.653.
For TTCACTTGTCGTAAGACATTTGATGGGTTGA [3d478], the fraction ligated turned out to be 0.0347.
Sequence TTCACTTGTCGTAAGACATTTGGAGGGTTGA [3d480] came in with a fraction ligated of 0.0169.
TTCACTTGTCGTAAGACATTTGGATGGGTTA [3d482] displayed a fraction ligated of 0.167.
With TTCACTTGTCGTAAGACATTTGGATGGGTTG [3d483] the figure was 0.731; with TTCACTTGTCGTAAGACATTTGGATGGGTTGA [2d39], 0.776.
Sequence TTCACTTGTCGTAAGACATTTGGATGGTTGA [3d481] showed a fraction ligated of 0.25.
With TTCACTTGTCGTAAGACATTTGGTGGGTTGA [3d479], the fraction ligated was 0.0115.
The sequence TTCACTTGTCGTAAGACCTTGGATGGGTTGA [3d470] returned a fraction ligated of 0.678.
Consider TTCACTTGTCGTAAGACCTTTGATGGGTTGA [3d471], for which the fraction ligated turned out to be 0.164.
TTCACTTGTCGTAAGACCTTTGGAGGGTTGA [3d473] yielded a fraction ligated of 0.073.
Sequence TTCACTTGTCGTAAGACCTTTGGATGGGTTA [3d475] gave a fraction ligated of 0.347.
With TTCACTTGTCGTAAGACCTTTGGATGGGTTG [3d476] the figure was 0.77; with TTCACTTGTCGTAAGACCTTTGGATGGGTTGA [2d38], 0.793; with TTCACTTGTCGTAAGACCTTTGGATGGTTGA [3d474], 0.523.
In turn, TTCACTTGTCGTAAGACCTTTGGTGGGTTGA [3d472] showed a fraction ligated of 0.0157.
Next, TTCACTTGTCGTAAGACTTTGGATGGGTTGA [3d452]: 0.752.
With TTCACTTGTCGTAAGCACTTGGATGGGTTGA [3d455], the fraction ligated was 0.231.
Next, TTCACTTGTCGTAAGCACTTTGATGGGTTGA [3d456]: 0.0811; TTCACTTGTCGTAAGCACTTTGGAGGGTTGA [3d458]: 0.051.
TTCACTTGTCGTAAGCACTTTGGATGGGTTA [3d460] came in with a fraction ligated of 0.0582.
For TTCACTTGTCGTAAGCACTTTGGATGGGTTG [3d461], the fraction ligated was 0.601.
Sequence TTCACTTGTCGTAAGCACTTTGGATGGGTTGA [2d36] displayed a fraction ligated of 0.771.
TTCACTTGTCGTAAGCACTTTGGATGGTTGA [3d459] registered a fraction ligated of 0.164.
Sequence TTCACTTGTCGTAAGCACTTTGGTGGGTTGA [3d457] displayed a fraction ligated of 0.0197.
TTCACTTGTCGTAAGCATTTGGATGGGTTGA [3d454] had a fraction ligated of 0.769.
As to TTCACTTGTCGTAAGCCTTTGGATGGGTTGA [3d453], the fraction ligated was 0.525.
The sequence TTCACTTGTCGTAGAACTTTGGATGGGTTGA [3d432] came in with a fraction ligated of 0.761.
In turn, TTCACTTGTCGTAGACACTTGGATGGGTTGA [3d435] returned a fraction ligated of 0.489.
As to TTCACTTGTCGTAGACACTTTGATGGGTTGA [3d436], the fraction ligated was found to be 0.258.
Turning to TTCACTTGTCGTAGACACTTTGGAGGGTTGA [3d438], the fraction ligated was determined as 0.149.
Next, TTCACTTGTCGTAGACACTTTGGATGGGTTA [3d440]: 0.341; TTCACTTGTCGTAGACACTTTGGATGGGTTG [3d441]: 0.801; TTCACTTGTCGTAGACACTTTGGATGGGTTGA [2d34]: 0.798.
Sequence TTCACTTGTCGTAGACACTTTGGATGGTTGA [3d439] returned a fraction ligated of 0.57.
The sequence TTCACTTGTCGTAGACACTTTGGTGGGTTGA [3d437] displayed a fraction ligated of 0.0435.
Sequence TTCACTTGTCGTAGACATTTGGATGGGTTGA [3d434] gave a fraction ligated of 0.742.
With TTCACTTGTCGTAGACCTTTGGATGGGTTGA [3d433] the figure was 0.751; with TTCACTTGTCGTAGCACTTTGGATGGGTTGA [3d431], 0.735; with TTCACTTGTCGTGACACTTTGGATGGGTTGA [3d429], 0.255.
With TTCACTTGTCTAAACACTTTGGATGGGTTGA [3d404] the figure was 0.719; with TTCACTTGTCTAAGAACTTTGGATGGGTTGA [3d406], 0.349.
In the case of TTCACTTGTCTAAGACACTTGGATGGGTTGA [3d409], the fraction ligated was 0.435.
TTCACTTGTCTAAGACACTTTGATGGGTTGA [3d410] registered a fraction ligated of 0.312.
With TTCACTTGTCTAAGACACTTTGGAGGGTTGA [3d412] the figure was 0.154; with TTCACTTGTCTAAGACACTTTGGATGGGTTA [3d414], 0.344.
